39 variants from the Human Domainome abundance scans (Beltran et al. 2025) can be followed below.

First the molecules themselves.
B1: Homeobox protein cut-like 2, residues 895 to 963; numbered along this chain, O14529 (parent)
chain: EVDTLELTRQVKEKLAKNGICQRIFGEKVLGLSQGSVSDMLSRPKPWSKLTQKGREPFIRMQLWLSDQL

± gives the uncertainty stated by the source.

Variants of B1 are the subject of this data set. As to the kind of experiment: abundance fitness (aPCA) (normalised: wild type 0, dead -1); higher = more abundant; growth selection in yeast, the domain comes from the species named. Particulars: Homo sapiens.
Consider EVDTLELTRQVKEKLAKNGICQRIFGEKVLGLSQGSVSDMLSRPKPWSKLTQKGREPFKRMQLWLSDQL [I59K], for which the abundance fitness stood at 0.079 ± 0.051. To EVDTLELTRQVKEKLAKNGICQRIFGEKVLGLSQGSVSDMLSRPKPWSKLTQKGREPFFRMQLWLSDQL [I59F] belongs -0.212 ± 0.072. To EVDTLELTRQVKEKLAKNGICQRIFGEKVLGLSQGSVSDMLSRPKPWSKLTQKGREPFTRMQLWLSDQL [I59T] belongs -0.049 ± 0.034.

With EVDTLELTRQVKEKLAKNGICQRIFGEKVLGLSQGSVSDMLSRPKPWSKLTQKGREPFIRHQLWLSDQL [M61H], the abundance fitness is -0.812 ± 0.11. The same measure for EVDTLELTRQVKEKLAKNGICQRIFGEKVLGLSQGSVSDMLSRPKPWSKLTQKGREPFIRWQLWLSDQL [M61W]: -0.379 ± 0.038; for EVDTLELTRQVKEKLAKNGICQRIFGEKVLGLSQGSVSDMLSRPKPWSKLTQKPREPFIRMQLWLSDQL [G54P]: -0.581 ± 0.041; for EVDTLELTRQVKEKLAKNGICQRIFGEKVLGLSQGSVSDMLSRPKPRSKLTQKGREPFIRMQLWLSDQL [W47R]: -0.793 ± 0.077. For EVDTLELTQQVKEKLAKNGICQRIFGEKVLGLSQGSVSDMLSRPKPWSKLTQKGREPFIRMQLWLSDQL [R9Q], the abundance fitness is -0.132 ± 0.045. The same measure for EVDTLELTRQVKEKLAKNGICQRIFGEKVLGLSQGSVTDMLSRPKPWSKLTQKGREPFIRMQLWLSDQL [S38T]: 0.006 ± 0.026; for EVDTLELTRQVKEKLAKNGICQRIFGEKVLGLSQGSVRDMLSRPKPWSKLTQKGREPFIRMQLWLSDQL [S38R]: 0.024 ± 0.028.

For EVDTLELTRQVKEKLAKNGICQRIFGEKVLGLSQGSVSDMLYRPKPWSKLTQKGREPFIRMQLWLSDQL [S42Y], the abundance fitness is -0.075 ± 0.04. Regarding EVDTLELTRQVKEKLSKNGICQRIFGEKVLGLSQGSVSDMLSRPKPWSKLTQKGREPFIRMQLWLSDQL [A16S], the abundance fitness is 0.008 ± 0.038. Turning to EVDTLELTRQVKEKLAKNGICQRIFGEHVLGLSQGSVSDMLSRPKPWSKLTQKGREPFIRMQLWLSDQL [K28H], the abundance fitness is -0.128 ± 0.054. The same measure for EVDTLELTRQVKEKLAKNGICQRIFGEFVLGLSQGSVSDMLSRPKPWSKLTQKGREPFIRMQLWLSDQL [K28F]: -0.327 ± 0.038; for EVDTLELTRQVKEKLAKNGICQREFGEKVLGLSQGSVSDMLSRPKPWSKLTQKGREPFIRMQLWLSDQL [I24E]: 0.278 ± 0.046. Take EVFTLELTRQVKEKLAKNGICQRIFGEKVLGLSQGSVSDMLSRPKPWSKLTQKGREPFIRMQLWLSDQL [D3F]: the abundance fitness is -0.139 ± 0.047.

For EVDTLELTRQVKEKLAKNGICQRIFGEKVLFLSQGSVSDMLSRPKPWSKLTQKGREPFIRMQLWLSDQL [G31F], the abundance fitness is -0.317 ± 0.049. For EVDTLELTRQVKEKLAKNGICQRIFGEKVLDLSQGSVSDMLSRPKPWSKLTQKGREPFIRMQLWLSDQL [G31D], the abundance fitness was -0.132 ± 0.072.

For the variant EVDTLELTRQVKEKLAKNGICQRIFGEKVLNLSQGSVSDMLSRPKPWSKLTQKGREPFIRMQLWLSDQL [G31N], the abundance fitness was -0.121 ± 0.081.

Regarding EVDTLELTRQVKEKDAKNGICQRIFGEKVLGLSQGSVSDMLSRPKPWSKLTQKGREPFIRMQLWLSDQL [L15D], the abundance fitness was -0.211 ± 0.048. The same measure for EVDTLELTRQVKEKCAKNGICQRIFGEKVLGLSQGSVSDMLSRPKPWSKLTQKGREPFIRMQLWLSDQL [L15C]: -0.123 ± 0.043. Take EVDTLELTRQVKEKLAKNGICQRIFGEKVLGLSQGSVSDMLSRPKPWSKLTQKGREPVIRMQLWLSDQL [F58V]: the abundance fitness was -0.662 ± 0.049. The same measure for EVDTLELTRQVKEKLAKNGICQRIFGEKVLGLSQGSVSDMLSRPKPWSKLTQKGREPGIRMQLWLSDQL [F58G]: -0.888 ± 0.099; for EVDTLELTRQVKEKLAKNGICQRIFGEKVLGLSQGSVSDMLSRPKPWSKLTQKGREPFIRMQLWSSDQL [L65S]: -0.962 ± 0.049; for EVDTLELTRQVKEKLAKNGICQRIFGEKVLGLSQGSVSDMLSRPKPWSKLTQKGREPFIRMQLWMSDQL [L65M]: -0.294 ± 0.034. In the case of EVDTLELTRQVKEKLAMNGICQRIFGEKVLGLSQGSVSDMLSRPKPWSKLTQKGREPFIRMQLWLSDQL [K17M], the abundance fitness is -0.09 ± 0.039. Take EVDTLELTRQVKEKLAINGICQRIFGEKVLGLSQGSVSDMLSRPKPWSKLTQKGREPFIRMQLWLSDQL [K17I]: the abundance fitness was -0.292 ± 0.066. The same measure for EVDTLEDTRQVKEKLAKNGICQRIFGEKVLGLSQGSVSDMLSRPKPWSKLTQKGREPFIRMQLWLSDQL [L7D]: -0.074 ± 0.076; for EVDTLELTRQVKEKLAKNGICQRIFGEKVLGLSQGSVSDMLSPPKPWSKLTQKGREPFIRMQLWLSDQL [R43P]: -0.357 ± 0.027; for EVDTLKLTRQVKEKLAKNGICQRIFGEKVLGLSQGSVSDMLSRPKPWSKLTQKGREPFIRMQLWLSDQL [E6K]: -0.035 ± 0.045.

Take EVDTLCLTRQVKEKLAKNGICQRIFGEKVLGLSQGSVSDMLSRPKPWSKLTQKGREPFIRMQLWLSDQL [E6C]: the abundance fitness is -0.231 ± 0.042. As to EVDTLRLTRQVKEKLAKNGICQRIFGEKVLGLSQGSVSDMLSRPKPWSKLTQKGREPFIRMQLWLSDQL [E6R], the abundance fitness is -0.162 ± 0.034. For the variant EVDTLELTRQVKEKLAKNGICQRIFGEKVLGLSQGSVSDYLSRPKPWSKLTQKGREPFIRMQLWLSDQL [M40Y], the abundance fitness is -0.236 ± 0.11.

EVDTLELTRQVKEKLAKNGICQRIFGEKVLGLSQGSVSDHLSRPKPWSKLTQKGREPFIRMQLWLSDQL [M40H]: the abundance fitness was -0.287 ± 0.081.

Consider EVDTLELTRQVKEKLAKNGICQRIFGEKVLGLSQRSVSDMLSRPKPWSKLTQKGREPFIRMQLWLSDQL [G35R], for which the abundance fitness was 0.037 ± 0.027.

With EVDTLELTRQVKEKLAKNGICQRIFGEKVLGLSQISVSDMLSRPKPWSKLTQKGREPFIRMQLWLSDQL [G35I], the abundance fitness was -0.215 ± 0.062. To EVDTLELTRQVKEKLAKNGICQRIFGEKVLGLSQGSVSDMLSRPKPWSKLTQAGREPFIRMQLWLSDQL [K53A] belongs -0.014 ± 0.035.

Regarding EVDTLELTRQVKEKLAKNGICQRIFGEKVLGLSQGSVSDMLSRPKPWSKLTQEGREPFIRMQLWLSDQL [K53E], the abundance fitness is -0.017 ± 0.05. The same measure for EVDTLELTRQVKEKLAKNGICQRIFGEKVLGLSQGSVSDMLSRPKPWSKLTQGGREPFIRMQLWLSDQL [K53G]: -0.309 ± 0.045.
